Values of other authors as cited in publication PMC10950897, “VCF1 is a p97/VCP cofactor promoting recognition of ubiquitylated p97-UFD1-NPL4 substrates” (Nature Communications, 2024).

Molecular target: p97 (Homo sapiens) (UniProt P55072)
Sequence (P55072 2-806): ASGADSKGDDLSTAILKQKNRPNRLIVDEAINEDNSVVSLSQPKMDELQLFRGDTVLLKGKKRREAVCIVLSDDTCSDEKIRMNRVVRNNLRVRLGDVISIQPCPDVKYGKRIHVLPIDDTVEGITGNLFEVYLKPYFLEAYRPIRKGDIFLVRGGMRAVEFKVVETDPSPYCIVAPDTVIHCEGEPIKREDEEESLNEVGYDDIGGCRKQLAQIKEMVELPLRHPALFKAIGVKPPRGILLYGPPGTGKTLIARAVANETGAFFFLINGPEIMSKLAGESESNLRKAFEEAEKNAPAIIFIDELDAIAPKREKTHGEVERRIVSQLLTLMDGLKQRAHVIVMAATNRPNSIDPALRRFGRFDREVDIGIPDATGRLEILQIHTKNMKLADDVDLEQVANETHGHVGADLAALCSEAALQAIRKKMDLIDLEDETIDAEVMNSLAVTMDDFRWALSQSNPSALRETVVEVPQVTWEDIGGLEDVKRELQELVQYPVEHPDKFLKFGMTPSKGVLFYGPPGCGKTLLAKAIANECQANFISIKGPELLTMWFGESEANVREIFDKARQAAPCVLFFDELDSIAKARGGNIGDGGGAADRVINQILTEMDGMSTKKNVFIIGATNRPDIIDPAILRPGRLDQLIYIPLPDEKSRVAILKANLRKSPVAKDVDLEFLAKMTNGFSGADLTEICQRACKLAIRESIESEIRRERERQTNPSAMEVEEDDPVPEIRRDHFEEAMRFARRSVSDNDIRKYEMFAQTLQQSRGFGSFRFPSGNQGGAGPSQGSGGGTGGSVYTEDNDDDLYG

p47, sequence (Q9UNZ2 whole entry): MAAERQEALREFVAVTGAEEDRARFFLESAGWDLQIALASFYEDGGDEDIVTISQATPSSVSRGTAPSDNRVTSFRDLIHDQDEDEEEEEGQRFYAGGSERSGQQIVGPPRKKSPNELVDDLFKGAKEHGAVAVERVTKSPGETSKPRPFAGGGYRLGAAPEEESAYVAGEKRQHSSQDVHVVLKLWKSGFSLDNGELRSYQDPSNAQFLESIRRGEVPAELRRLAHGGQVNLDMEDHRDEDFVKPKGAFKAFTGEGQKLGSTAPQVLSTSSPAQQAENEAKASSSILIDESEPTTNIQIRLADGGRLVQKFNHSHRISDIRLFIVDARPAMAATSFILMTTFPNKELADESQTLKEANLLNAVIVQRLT

## p47 (from UniProt Q9UNZ2)
  Kd: 350 nM
